Measurements taken from article PMC10397247.

How the values were obtained:
4H3625-AA = biological target: T1, 4H3625-AA; assay: two-hybrid library CCmax; settings: mean of both orientations;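 also: natural log of median RNA to DNA barcode read ratio; higher means stronger binding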
T1 chain: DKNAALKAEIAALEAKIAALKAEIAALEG

4H2935-AA = biological target: T2, 4H2935-AA; assay: two-hybrid library CCmax; settings: mean of both orientations;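 also: natural log of median RNA to DNA barcode read ratio; higher means stronger binding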
T2 chain: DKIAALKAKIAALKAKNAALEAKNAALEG

4H2211-AA = biological target: T3, 4H2211-AA; assay: two-hybrid library CCmax;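 also: natural log of median RNA to DNA barcode read ratio; higher means stronger binding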
T3 chain: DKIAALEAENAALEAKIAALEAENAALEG

4H369-AA = biological target: T4, 4H369-AA; assay: two-hybrid library CCmax; settings: mean of both orientations;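 also: natural log of median RNA to DNA barcode read ratio; higher means stronger binding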
T4 chain: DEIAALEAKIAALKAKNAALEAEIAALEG

4H662-AA = biological target: T5, 4H662-AA; assay: two-hybrid library CCmax; settings: mean of both orientations;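 also: natural log of median RNA to DNA barcode read ratio; higher means stronger binding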
T5 chain: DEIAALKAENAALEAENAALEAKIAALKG

4H3922-AA = biological target: T6, 4H3922-AA; assay: two-hybrid library CCmax; settings: mean of both orientations;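 also: natural log of median RNA to DNA barcode read ratio; higher means stronger binding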
T6 chain: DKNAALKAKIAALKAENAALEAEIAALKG

4H2608-AA = biological target: T7, 4H2608-AA; assay: two-hybrid library CCmax; settings: mean of both orientations
T7 chain: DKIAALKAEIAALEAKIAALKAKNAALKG

4H1198-AA = biological target: T8, 4H1198-AA; assay: two-hybrid library CCmax; settings: mean of both orientations
T8 chain: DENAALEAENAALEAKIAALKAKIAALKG

4H55-AA = biological target: T9, 4H55-AA; assay: two-hybrid library CCmax; settings: mean of both orientations
T9 chain: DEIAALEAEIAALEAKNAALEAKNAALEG

4H4033-AA = biological target: T10, 4H4033-AA; assay: two-hybrid library CCmax; settings: mean of both orientations
T10 chain: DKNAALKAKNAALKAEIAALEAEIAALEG

4H1103-AA = biological target: T11, 4H1103-AA; assay: two-hybrid library CCmax
T11 chain: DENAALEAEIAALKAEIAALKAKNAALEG

4H481-AA = biological target: T12, 4H481-AA; assay: two-hybrid library CCmax; settings: mean of both orientations
T12 chain: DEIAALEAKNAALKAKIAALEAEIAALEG

4H1350-AA = biological target: T13, 4H1350-AA; assay: two-hybrid library CCmax; settings: mean of both orientations
T13 chain: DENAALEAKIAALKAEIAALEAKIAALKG

4H2513-AA = biological target: T14, 4H2513-AA; assay: two-hybrid library CCmax; settings: mean of both orientations
T14 chain: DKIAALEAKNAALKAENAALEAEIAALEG

4H3664-AA = biological target: T15, 4H3664-AA; assay: two-hybrid library CCmax; settings: mean of both orientations
T15 chain: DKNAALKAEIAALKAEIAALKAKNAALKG

4H2238-AA = biological target: T16, 4H2238-AA; assay: two-hybrid library CCmax; settings: mean of both orientations
T16 chain: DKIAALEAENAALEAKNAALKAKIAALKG

4H2614-AA = biological target: T17, 4H2614-AA; assay: two-hybrid library CCmax; settings: mean of both orientations
T17 chain: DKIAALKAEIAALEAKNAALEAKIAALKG

4H3605-AA = biological target: T18, 4H3605-AA; assay: two-hybrid library CCmax; settings: mean of both orientations
T18 chain: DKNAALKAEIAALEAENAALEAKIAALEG

4H2536-AA = biological target: T19, 4H2536-AA; assay: two-hybrid library CCmax; settings: mean of both orientations
T19 chain: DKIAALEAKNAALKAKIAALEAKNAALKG

4H327-AA = biological target: T20, 4H327-AA; assay: two-hybrid library CCmax
T20 chain: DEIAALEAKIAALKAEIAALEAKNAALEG

4H2726-AA = biological target: T21, 4H2726-AA; assay: two-hybrid library CCmax; settings: mean of both orientations
T21 chain: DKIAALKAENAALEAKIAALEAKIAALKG

4H1405-AA = biological target: T22, 4H1405-AA; assay: two-hybrid library CCmax; settings: mean of both orientations
T22 chain: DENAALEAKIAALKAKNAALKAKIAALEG

O2 = biological target: T23, O2; assay: two-hybrid library CC0; settings: mean of both orientations
T23 chain: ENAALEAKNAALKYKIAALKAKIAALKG

O9 = biological target: T24, O9; assay: two-hybrid library CC0; settings: mean of both orientations
T24 chain: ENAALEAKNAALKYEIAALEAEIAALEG

O3 = biological target: T25, O3; assay: two-hybrid library CC0; settings: mean of both orientations
T25 chain: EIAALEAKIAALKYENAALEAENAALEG

O14 = biological target: T26, O14; assay: two-hybrid library CC0; settings: mean of both orientations
T26 chain: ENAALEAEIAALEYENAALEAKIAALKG

O8 = biological target: T27, O8; assay: two-hybrid library CC0; settings: mean of both orientations
T27 chain: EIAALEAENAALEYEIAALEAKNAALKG

O12 = biological target: T28, O12; assay: two-hybrid library CC0; settings: mean of both orientations
T28 chain: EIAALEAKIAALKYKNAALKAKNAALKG

O6 = biological target: T29, O6; assay: two-hybrid library CC0; settings: mean of both orientations
T29 chain: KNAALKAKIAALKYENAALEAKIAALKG

O5 = biological target: T30, O5; assay: two-hybrid library CC0; settings: mean of both orientations
T30 chain: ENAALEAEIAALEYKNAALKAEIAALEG

O11 = biological target: T31, O11; assay: two-hybrid library CC0; settings: mean of both orientations
T31 chain: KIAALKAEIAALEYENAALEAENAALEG

O7 = biological target: T32, O7; assay: two-hybrid library CC0; settings: mean of both orientations
T32 chain: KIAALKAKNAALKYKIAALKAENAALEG

O4 = biological target: T33, O4; assay: two-hybrid library CC0; settings: mean of both orientations
T33 chain: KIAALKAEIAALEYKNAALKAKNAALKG

O13 = biological target: T34, O13; assay: two-hybrid library CC0; settings: mean of both orientations
T34 chain: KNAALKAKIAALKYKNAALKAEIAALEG

O15 = biological target: T35, O15; assay: two-hybrid library CC0; settings: mean of both orientations
T35 chain: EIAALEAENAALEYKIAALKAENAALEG

O16 = biological target: T36, O16; assay: two-hybrid library CC0; settings: mean of both orientations
T36 chain: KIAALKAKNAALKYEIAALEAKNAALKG

GCN2_T = assay: two-hybrid library CCmax; settings: mean of both orientations
4H510-AA = biological target: T37, 4H510-AA; assay: two-hybrid library CCmax; settings: mean of both orientations
T37 chain: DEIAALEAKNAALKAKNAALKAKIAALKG

4H337-AA = biological target: T38, 4H337-AA; assay: two-hybrid library CCmax; settings: mean of both orientations
T38 chain: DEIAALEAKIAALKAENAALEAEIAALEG

4H2622-AA = biological target: T39, 4H2622-AA; assay: two-hybrid library CCmax; settings: mean of both orientations
T39 chain: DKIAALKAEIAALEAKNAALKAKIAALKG

4H4038-AA = biological target: T40, 4H4038-AA; assay: two-hybrid library CCmax; settings: mean of both orientations
T40 chain: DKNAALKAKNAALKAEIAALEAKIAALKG

4H451-AA = biological target: T41, 4H451-AA; assay: two-hybrid library CCmax; settings: mean of both orientations
T41 chain: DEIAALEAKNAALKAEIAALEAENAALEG

4H2705-AA = biological target: T42, 4H2705-AA; assay: two-hybrid library CCmax; settings: mean of both orientations
T42 chain: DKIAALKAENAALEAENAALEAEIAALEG

4H_BCR = biological target: T43, 4H_BCR; assay: two-hybrid library CCmax
T43 chain: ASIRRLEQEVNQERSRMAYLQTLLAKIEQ

4H1385-AA = biological target: T44, 4H1385-AA; assay: two-hybrid library CCmax; settings: mean of both orientations
T44 chain: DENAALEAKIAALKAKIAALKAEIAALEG

O11-AA = biological target: T45, O11-AA; assay: two-hybrid library CCmax; settings: mean of both orientations
T45 chain: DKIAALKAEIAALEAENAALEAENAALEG

4H134-AA = biological target: T46, 4H134-AA; assay: two-hybrid library CCmax
T46 chain: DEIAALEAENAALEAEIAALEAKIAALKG

4H43-AA = biological target: T47, 4H43-AA; assay: two-hybrid library CCmax; settings: mean of both orientations
T47 chain: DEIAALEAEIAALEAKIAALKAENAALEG

O14-AA = biological target: T48, O14-AA; assay: two-hybrid library CCmax; settings: mean of both orientations
T48 chain: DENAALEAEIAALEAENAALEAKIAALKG

4H3590-AA = biological target: T49, 4H3590-AA; assay: two-hybrid library CCmax; settings: mean of both orientations
T49 chain: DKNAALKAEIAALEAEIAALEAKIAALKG

4H3049-AA = biological target: T50, 4H3049-AA; assay: two-hybrid library CCmax; settings: mean of both orientations
T50 chain: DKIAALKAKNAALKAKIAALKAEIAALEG

4H384-AA = biological target: T51, 4H384-AA; assay: two-hybrid library CCmax; settings: mean of both orientations
T51 chain: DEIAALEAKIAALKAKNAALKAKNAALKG

4H1392-AA = biological target: T52, 4H1392-AA; assay: two-hybrid library CCmax; settings: mean of both orientations
T52 chain: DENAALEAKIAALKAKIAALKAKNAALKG

4H3905-AA = biological target: T53, 4H3905-AA; assay: two-hybrid library CCmax; settings: mean of both orientations
T53 chain: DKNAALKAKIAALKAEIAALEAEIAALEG

4H3587-AA = biological target: T54, 4H3587-AA; assay: two-hybrid library CCmax; settings: mean of both orientations
T54 chain: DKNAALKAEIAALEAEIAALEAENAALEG

4H2888-AA = biological target: T55, 4H2888-AA; assay: two-hybrid library CCmax; settings: mean of both orientations
T55 chain: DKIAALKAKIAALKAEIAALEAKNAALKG

4H_GCN4 = assay: two-hybrid library CCmax
Chain of 4H_GCN4 (chain, as listed by the source): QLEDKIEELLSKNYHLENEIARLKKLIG

4H2736-AA = biological target: T56, 4H2736-AA; assay: two-hybrid library CCmax; settings: mean of both orientations
T56 chain: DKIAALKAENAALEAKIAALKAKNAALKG

4H_APH = biological target: T57, 4H_APH; assay: two-hybrid library CCmax; settings: mean of both orientations
T57 chain: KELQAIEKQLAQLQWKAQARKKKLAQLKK

O13-AA = biological target: T58, O13-AA; assay: two-hybrid library CCmax; settings: mean of both orientations
T58 chain: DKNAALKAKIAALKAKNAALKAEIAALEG

P11A-bA = biological target: T59, P11A-bA; assay: two-hybrid library CCNG1
T59 chain: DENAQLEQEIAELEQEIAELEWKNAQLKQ

4H491-bH = biological target: T60, 4H491-bH; assay: two-hybrid library CCNG1
T60 chain: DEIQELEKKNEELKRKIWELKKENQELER

B1: 4H1103-AA (peptide)
chain: DENAALEAEIAALKAEIAALKAKNAALEG
4H3625-AA
  interaction score: -0.923
4H2935-AA
  interaction score: -1.16
4H2211-AA
  interaction score: -1.7
4H369-AA
  interaction score: -1.5
4H662-AA
  interaction score: -1.27
4H3922-AA
  interaction score: -1.44
4H2608-AA
  interaction score: 0.0702
4H1198-AA
  interaction score: -1.33
4H55-AA
  interaction score: -1.09
4H4033-AA
  interaction score: 0.386
4H1103-AA
  interaction score: 1.1
4H481-AA
  interaction score: -0.163
4H1350-AA
  interaction score: -0.275
4H2513-AA
  interaction score: -1.55
4H3664-AA
  interaction score: 2.17
4H2238-AA
  interaction score: -1.65
4H2614-AA
  interaction score: -1.01
4H3605-AA
  interaction score: -1.61
4H2536-AA
  interaction score: -1.47
4H327-AA
  interaction score: -0.714
4H2726-AA
  interaction score: -1.04
4H1405-AA
  interaction score: -1.89

B2: O11 (peptide)
chain: KIAALKAEIAALEYENAALEAENAALEG
O2
  interaction score: -2.53
O9
  interaction score: -2.79
O3
  interaction score: -2.55
O14
  interaction score: -2.7
O8
  interaction score: -2.61
O12
  interaction score: 0.932
O6
  interaction score: -2.64
O5
  interaction score: -2.71
O11
  interaction score: -2.72
O7
  interaction score: -2.69
O4
  interaction score: 0.197
O13
  interaction score: -2.75
O15
  interaction score: -2.79
O16
  interaction score: -2.66

B3: 4H134-AA (peptide)
chain: DEIAALEAENAALEAEIAALEAKIAALKG
GCN2_T
  interaction score: 0.268
4H3625-AA
  interaction score: 1.5
4H510-AA
  interaction score: 1.96
4H337-AA
  interaction score: 0.273
4H2622-AA
  interaction score: 2.38
4H4038-AA
  interaction score: 2
4H451-AA
  interaction score: 0.937
4H2705-AA
  interaction score: -0.938
4H_BCR
  interaction score: -0.839
4H1385-AA
  interaction score: 2.21
O11-AA
  interaction score: -1.36
4H134-AA
  interaction score: -0.374
4H43-AA
  interaction score: -0.679
O14-AA
  interaction score: -0.533
4H1350-AA
  interaction score: 0.48
4H3590-AA
  interaction score: 0.654
4H3049-AA
  interaction score: 1.84
4H384-AA
  interaction score: 2.04
4H1392-AA
  interaction score: 0.139
4H3905-AA
  interaction score: 1.17
4H3587-AA
  interaction score: 0.794
4H2888-AA
  interaction score: 2.4
4H_GCN4
  interaction score: 1.94
4H2736-AA
  interaction score: 0.536
4H_APH
  interaction score: 1.96
O13-AA
  interaction score: 2.02

B4: 4H491-bH (peptide)
chain: DEIQELEKKNEELKRKIWELKKENQELER
P11A-bA
  interaction score: 0.405
4H491-bH
  interaction score: -1.32
